Among the targets are HLA-A*02:03; HLA-A*68:02; HLA-A*02:01; HLA-A*02:06; HLA-A*02:02.
Holding throughout (assay): IEDB peptide-MHC binding, purified MHC/competitive/radioactivity; ≥ and ≤ were set here for values at or beyond the usual limits of such assays
The mark [1] stands for this setting: source organism: Vaccinia virus WR.
The mark [2] stands for this setting: source organism: Hepacivirus hominis.
[3] abbreviates: source organism: Mammarenavirus choriomeningitidis.
[4] abbreviates: source organism: Mammarenavirus machupoense.

The term IC50 denotes the concentration that inhibits the measured activity by half.

On to AAIDRQVSV, for which the IC50 in the assay with HLA-A*02:03 (setting [1]) was 19 nM; with HLA-A*68:02 (setting [1]), 1440 nM; with HLA-A*02:01 (setting [1]) it was 1470 nM; with HLA-A*02:06 (setting [1]), 15 nM; with HLA-A*02:02 (setting [1]), 933 nM.
The like results for AAITLVVISV were, in that order, 246 nM, 715 nM, 369 nM, 27 nM and 501 nM.
For AAVIIMAINV, the 50% inhibitory concentration (IC50) in the assay with HLA-A*02:03 (setting [1]) was found to be 607 nM; in the assay with HLA-A*68:02 (setting [1]) it was 95 nM; with HLA-A*02:01 (setting [1]), 1450 nM; with HLA-A*02:06 (setting [1]), 446 nM; in the assay with HLA-A*02:02 (setting [1]), 1290 nM.
Take AIAACAMLLV: the half-inhibitory concentration (IC50) was 32 nM in the assay with HLA-A*02:03 (source organism: SARS-CoV1); 1430 nM in the assay with HLA-A*68:02 (source organism: SARS-CoV1); 36 nM with HLA-A*02:01 (source organism: SARS-CoV1); 78 nM with HLA-A*02:06 (source organism: SARS-CoV1); 5.9 nM with HLA-A*02:02 (source organism: SARS-CoV1).
Turning to AIFNNRNLA, the IC50 in the assay with HLA-A*02:03 (setting [1]) was determined as 98 nM; in the assay with HLA-A*68:02 (setting [1]) it was 372 nM; with HLA-A*02:01 (setting [1]), 3180 nM; with HLA-A*02:06 (setting [1]), 7.1 nM; with HLA-A*02:02 (setting [1]), 272 nM.
Turning to AIFNNRNLAA, the IC50 with HLA-A*02:03 (setting [1]) is 103 nM; with HLA-A*68:02 (setting [1]) it was 2860 nM; with HLA-A*02:01 (setting [1]), 1330 nM; with HLA-A*02:06 (setting [1]), 774 nM; with HLA-A*02:02 (setting [1]), 450 nM.
AIILASFSA: the 50% inhibitory concentration (IC50) with HLA-A*02:03 (source organism: SARS-CoV1) was found to be 176 nM; with HLA-A*68:02 (source organism: SARS-CoV1), 870 nM; with HLA-A*02:01 (source organism: SARS-CoV1), 274 nM; with HLA-A*02:06 (source organism: SARS-CoV1) it was 82 nM; with HLA-A*02:02 (source organism: SARS-CoV1) it was 201 nM.
Regarding AILHNIYRL, the concentration for half-maximal inhibition (IC50) in the assay with HLA-A*02:03 (setting [1]) worked out at 814 nM; in the assay with HLA-A*68:02 (setting [1]), 2570 nM; with HLA-A*02:01 (setting [1]), 48 nM; in the assay with HLA-A*02:06 (setting [1]), 44 nM; in the assay with HLA-A*02:02 (setting [1]), 106 nM.
For the sequence AIMTRCLAV, the 50% inhibitory concentration (IC50) in the assay with HLA-A*02:03 (source organism: SARS-CoV1) is 15 nM; with HLA-A*68:02 (source organism: SARS-CoV1), 1300 nM; in the assay with HLA-A*02:01 (source organism: SARS-CoV1) it was 5.9 nM; with HLA-A*02:06 (source organism: SARS-CoV1) it was 27 nM; with HLA-A*02:02 (source organism: SARS-CoV1), 51 nM.
AISAVYFKA: the half-maximal inhibitory concentration (IC50) with HLA-A*02:03 (setting [1]) is 525 nM; with HLA-A*68:02 (setting [1]) it was 77 nM; with HLA-A*02:01 (setting [1]), 41 nM; with HLA-A*02:06 (setting [1]), 149 nM; in the assay with HLA-A*02:02 (setting [1]) it was 3.7 nM.
For AISYCRAFI the same measures were 149 nM, 98 nM, 169 nM, 146 nM and 17 nM.
The like results for AITLVVISVI were, in that order, 786 nM, 2380 nM, 494 nM, 2000 nM and 406 nM.
Take ALAEHISDSI: the IC50 with HLA-A*02:03 (setting [1]) is 0.34 nM; with HLA-A*68:02 (setting [1]), 272 nM; in the assay with HLA-A*02:01 (setting [1]), 8.7 nM; with HLA-A*02:06 (setting [1]) it was 163 nM; with HLA-A*02:02 (setting [1]) it was 0.2 nM.
As to ALIARCWYL, the IC50 worked out at 17 nM with HLA-A*02:03 (source organism: SARS-CoV1); 1260 nM with HLA-A*68:02 (source organism: SARS-CoV1); 0.46 nM with HLA-A*02:01 (source organism: SARS-CoV1); 0.98 nM with HLA-A*02:06 (source organism: SARS-CoV1); 0.2 nM with HLA-A*02:02 (source organism: SARS-CoV1).
Consider ALINLVQYRI, for which the IC50 in the assay with HLA-A*02:03 (setting [1]) worked out at 82 nM; with HLA-A*68:02 (setting [1]), 1770 nM; with HLA-A*02:01 (setting [1]), 30 nM; in the assay with HLA-A*02:06 (setting [1]), 417 nM; in the assay with HLA-A*02:02 (setting [1]), 8.3 nM.
The like results for ALKAYFTAKI were, in that order, 77 nM, 4110 nM, 1600 nM, 2780 nM and 194 nM.
Consider ALLFLMSFTI, for which the 50% inhibitory concentration (IC50) came out at 199 nM with HLA-A*02:03 (source organism: SARS-CoV1); 1770 nM with HLA-A*68:02 (source organism: SARS-CoV1); 1.6 nM with HLA-A*02:01 (source organism: SARS-CoV1); 14 nM with HLA-A*02:06 (source organism: SARS-CoV1); 0.37 nM with HLA-A*02:02 (source organism: SARS-CoV1).
For the sequence ALLSCISVPV, the IC50 with HLA-A*02:03 (setting [2]) is 43 nM; with HLA-A*68:02 (setting [2]), 1270 nM; in the assay with HLA-A*02:01 (setting [2]), 28 nM; in the assay with HLA-A*02:06 (setting [2]) it was 76 nM; in the assay with HLA-A*02:02 (setting [2]), 41 nM.
Take ALMDLLMFS: the IC50 with HLA-A*02:03 (setting [3]) was 104 nM; in the assay with HLA-A*68:02 (setting [3]), 2990 nM; with HLA-A*02:01 (setting [3]) it was 2.4 nM; in the assay with HLA-A*02:06 (setting [3]) it was 14 nM; with HLA-A*02:02 (setting [3]), 0.94 nM.
Take ALMIAAQVVV: the IC50 in the assay with HLA-A*02:03 (setting [2]) stood at 71 nM; with HLA-A*68:02 (setting [2]) it was 1420 nM; in the assay with HLA-A*02:01 (setting [2]) it was 129 nM; with HLA-A*02:06 (setting [2]), 614 nM; with HLA-A*02:02 (setting [2]), 50 nM.
Turning to ALNIALVAV, the half-maximal inhibitory concentration (IC50) came out at 4.5 nM in the assay with HLA-A*02:03 (setting [4]); 3340 nM with HLA-A*68:02 (setting [4]); 79 nM with HLA-A*02:01 (setting [4]); 371 nM in the assay with HLA-A*02:06 (setting [4]); 15 nM with HLA-A*02:02 (setting [4]).
Regarding ALVCYIVMPV, the half-maximal inhibitory concentration (IC50) in the assay with HLA-A*02:03 (source organism: SARS-CoV1) was 4.4 nM; with HLA-A*68:02 (source organism: SARS-CoV1), 88 nM; with HLA-A*02:01 (source organism: SARS-CoV1) it was 5.6 nM; with HLA-A*02:06 (source organism: SARS-CoV1), 2.9 nM; with HLA-A*02:02 (source organism: SARS-CoV1) it was 1.2 nM.
Regarding ALVSDCAST, the IC50 was 31 nM in the assay with HLA-A*02:03 (setting [1]); 771 nM with HLA-A*68:02 (setting [1]); 115 nM in the assay with HLA-A*02:01 (setting [1]); 311 nM in the assay with HLA-A*02:06 (setting [1]); 701 nM with HLA-A*02:02 (setting [1]).

Values taken from the Immune Epitope Database (IEDB).
